# Measured values from US10488411B2, “Inflammasome activation in myelodysplastic syndromes” (H. LEE MOFFITT CANCER CENTER AND RESEARCH INSTITUTE, INC., priority 2015, dated 2019).
# B1: CD33-IgG1: S100A9 high-affinity chimeric (CD33-IgG1) decoy receptor (protein)
# chain: DPNFWLQVQESVTVQEGLCVLVPCTFFHPIPYYDKNSPVHGYWFREGAIISRDSPVATNKLDQEVQEETQGRFRLLGDPSRNNCSLSIVDARRRDNGSYFFRMERGSTKYSYKSPQLSVHVTDLTHRPKILIPGTLEPGHSKNLTCSVSWACEQGTPPIFSWLSAAPTSLGPRTTHSSVLIITPRPQDHGTNLTCQVKFAGAGVTTERTIQLNVTYVPQNPTTGIFPGDGSGKQETRAGVVH
# modifications: left off: a dimerising Fc or GST
# How the values were obtained:
# MDS BM-MNC = experiment: Pyroptosis flow cytometry panel (a-caspase-1+/annexin-V+) in MDS BM-MNC incubated with autologous BM plasma; format: cell-based, human
# Method: Pyroptosis flow cytometry panel. For human samples, treated and untreated BM-MNC were incubated overnight in IMDM, supplemented with 10% autologous BM plasma. Subsequently, cells were harvested, washed twice in 1×PBS, and stained with LIVE/DEAD Violet fluorescent reactive dye according to the manufacturer's protocol (Life Technologies). Cells were resuspended in 1×PBS with 2% BSA, and incubated at room temperature for 15 minutes to block non-specific binding. After washing, cells were stained with 30× FAM-FLICA® Caspase-1 and Caspase-3/7 solution at a ratio of 1:30 for 2 hours at 37° C. Cells were washed and stained for cell surface receptors using CD38:PE-CF594, CD33:BV711, CD34:APC (BD Biosciences), and CD71:PE-Cyanine7 (eBioscience). All antibodies were diluted 1:20, and cells were stained for 30 minutes at 4° C. Cells were washed, resuspended in 1× binding buffer, and stained with Annexin-V:Cy5.5 at a dilution of 1:20 for 15 minutes at room temperature (BD Biosciences). 1× binding buffer was added to a final volume of 400 μL. Sample acquisitions were carried out using a BD LSR II flow cytometer and FACSDiva software (BD Biosciences). Calibration of the flow cytometer was carried out prior to each experiment using Rainbow Mid-Range Fluorescent Particles (BD Biosciences). To establish fluorescence compensation settings, ArC Amine Reactive Compensation Beads were used for LIVE/DEAD Violet staining (Life Technologies), and BD CompBead Plus Anti-Mouse Ig κ/Negative Control (BSA) Compensation Plus Particles were used for surface receptor conjugates (BD Biosciences). Data were analyzed using FlowJo 9.7.5 software (FlowJo, LLC, Ashland, Oreg.).
# [1] = tested on: pyroptosis-related gene expression; experiment: qPCR of pyroptosis-related gene expression in lower-risk MDS BM-MNC; format: cell-based, human; details: lower-risk MDS BM-MNC (n=5), 24 hours, versus autologous BM plasma alone
# Method: Real-time quantitative PCR. RNA was isolated from BM-MNC using the RNeasy Mini Kit (Qiagen). cDNA was produced using the iScript cDNA Synthesis Kit (Bio-Rad). Sequences for primers can be found in Table 1. GAPDH mRNA was used for transcript normalization. cDNA was amplified using the iQ SYBR Green Supermix and the CFX96 Real-Time PCR Detection System (Bio-Rad). PCR conditions were as follows: 10 minutes at 95° C., followed by 40 cycles of amplification (15 seconds at 95° C. and 1 minute at 60° C.). Relative gene expression was calculated using the −2^ΔΔCt method.
molecule,measurement,setting,value
B1,"reduction of fraction of pyroptotic cells, maximum lineage-specific change, CD33+ cells","MDS BM-MNC; CD33+ immature myeloids, 0.5 μg CD33-IgG1 or 0.1 μM IRAK4 inhibitor, 24 hours, autologous BM plasma",68%
same,"reduction of fraction of pyroptotic cells, maximum lineage-specific change, CD71+ cells","MDS BM-MNC; CD71+ erythroids, 0.5 μg CD33-IgG1 or 0.1 μM IRAK4 inhibitor, 24 hours, autologous BM plasma",64%
same,fraction of pyroptotic cells across all lineages studied,"MDS BM-MNC; MDS BM-MNC (n=4) with autologous BM plasma, 0.5 μg CD33-IgG1 or 0.1 μM IRAK4 inhibitor, 24 hours",marked reduction
same,"reduction of fraction of pyroptotic cells, maximum lineage-specific change, progenitor cells","MDS BM-MNC; progenitor cells (CD34+CD38+), 0.5 μg CD33-IgG1 or 0.1 μM IRAK4 inhibitor, 24 hours, autologous BM plasma",23%
same,MDSC fraction,MDS BM-MNC; short-term treatment of MDS BM-MNC,significantly reduced
same,"reduction of fraction of pyroptotic cells, maximum lineage-specific change, stem cells","MDS BM-MNC; stem cells (CD34+CD38-), 0.5 μg CD33-IgG1 or 0.1 μM IRAK4 inhibitor, 24 hours, autologous BM plasma",44%
same,CASP3 expression,[1],markedly reduced
same,expression of CASP1,[1],reduced
same,expression of IL-1β,[1],reduced
same,expression of IL-18,[1],reduced
same,expression of NLRP3,[1],reduced
